Assay results published in the supplement of paper PMC10065799, “High-throughput profiling of sequence recognition by tyrosine kinases and SH2 domains using bacterial peptide display” (eLife, 2023).

Assays:
[1] = target: MERTK (UniProt Q12866); experiment: phosphorylation enrichment, bacterial display (enrichment ratio); higher = better substrate or ligand; peptides without Tyr show the background
[2] = target: EPHB2 (UniProt P29323); experiment: as above
[3] = target: FGFR3 (UniProt P22607); experiment: as above
[4] = target: FGFR1 (UniProt P11362); experiment: as above
[5] = system: c-Abl (mouse); experiment: as above
[6] = target: Jak2 (UniProt O60674); experiment: as above
[7] = system: c-Src; experiment: as above
[8] = system: Fer (mouse); experiment: as above
[9] = target: Fyn (UniProt P06241); experiment: as above
[10] = target: Hck (UniProt P08631); experiment: as above
[11] = target: Fes (UniProt P07332); experiment: as above
[12] = target: EPHB1 (UniProt P54762); experiment: as above
[13] = system: AncSZ; experiment: as above
[14] = target: c-Src SH2; experiment: SH2 binding enrichment of the phosphorylated peptide, bacterial display (enrichment ratio); higher = better substrate or ligand; peptides without Tyr show the background
[15] = target: Grb2 SH2 (UniProt P62993); experiment: as above
[16] = target: SHP2-C SH2; experiment: as above
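Wherever SH2 binding enrichment of the phosphorylated peptide, bacterial display is given: peptide library displayed on the E. coli surface as eCPX fusions, selected cells deep-sequenced, score is each peptide's frequency after selection divided by its frequency in the input.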
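Wherever phosphorylation enrichment, bacterial display is given: 11-residue human phosphosite peptides and single-mutation variants displayed on the E. coli surface, counted by deep sequencing, each peptide's frequency after selection divided by its frequency in the unselected input library; frequency after pTyr selection over input frequency; kinase dosed for 20-30% of maximal phosphorylation in three min.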

Chain of Grb2 SH2 (P62993 whole entry, looked up): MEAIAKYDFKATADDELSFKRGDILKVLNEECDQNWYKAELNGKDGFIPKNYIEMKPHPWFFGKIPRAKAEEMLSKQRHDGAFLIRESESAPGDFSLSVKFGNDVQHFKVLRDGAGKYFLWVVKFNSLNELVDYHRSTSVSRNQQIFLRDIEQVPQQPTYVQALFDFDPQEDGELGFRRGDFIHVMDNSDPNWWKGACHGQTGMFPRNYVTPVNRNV
Chain of Fes (P07332 whole entry, looked up): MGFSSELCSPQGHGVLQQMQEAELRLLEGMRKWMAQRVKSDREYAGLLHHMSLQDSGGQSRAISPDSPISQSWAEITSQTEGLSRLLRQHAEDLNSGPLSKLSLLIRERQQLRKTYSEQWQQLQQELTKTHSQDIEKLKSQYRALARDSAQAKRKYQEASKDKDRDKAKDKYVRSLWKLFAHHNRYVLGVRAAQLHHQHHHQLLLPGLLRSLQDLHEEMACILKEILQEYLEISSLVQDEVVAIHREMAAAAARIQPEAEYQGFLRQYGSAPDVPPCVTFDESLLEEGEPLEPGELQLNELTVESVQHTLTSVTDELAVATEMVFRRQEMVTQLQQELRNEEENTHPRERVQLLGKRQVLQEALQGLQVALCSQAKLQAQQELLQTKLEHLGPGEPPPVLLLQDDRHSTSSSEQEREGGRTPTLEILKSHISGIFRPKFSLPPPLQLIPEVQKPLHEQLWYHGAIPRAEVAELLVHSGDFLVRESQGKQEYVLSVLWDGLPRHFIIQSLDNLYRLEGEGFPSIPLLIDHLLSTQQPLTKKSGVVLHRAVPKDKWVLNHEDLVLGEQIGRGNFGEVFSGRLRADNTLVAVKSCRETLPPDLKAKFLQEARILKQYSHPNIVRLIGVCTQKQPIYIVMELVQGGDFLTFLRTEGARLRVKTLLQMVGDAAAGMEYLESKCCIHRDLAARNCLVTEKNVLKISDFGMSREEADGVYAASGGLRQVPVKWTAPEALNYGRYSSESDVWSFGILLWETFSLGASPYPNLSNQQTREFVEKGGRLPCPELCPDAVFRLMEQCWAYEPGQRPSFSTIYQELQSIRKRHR
Chain of Fyn (P06241 whole entry, looked up): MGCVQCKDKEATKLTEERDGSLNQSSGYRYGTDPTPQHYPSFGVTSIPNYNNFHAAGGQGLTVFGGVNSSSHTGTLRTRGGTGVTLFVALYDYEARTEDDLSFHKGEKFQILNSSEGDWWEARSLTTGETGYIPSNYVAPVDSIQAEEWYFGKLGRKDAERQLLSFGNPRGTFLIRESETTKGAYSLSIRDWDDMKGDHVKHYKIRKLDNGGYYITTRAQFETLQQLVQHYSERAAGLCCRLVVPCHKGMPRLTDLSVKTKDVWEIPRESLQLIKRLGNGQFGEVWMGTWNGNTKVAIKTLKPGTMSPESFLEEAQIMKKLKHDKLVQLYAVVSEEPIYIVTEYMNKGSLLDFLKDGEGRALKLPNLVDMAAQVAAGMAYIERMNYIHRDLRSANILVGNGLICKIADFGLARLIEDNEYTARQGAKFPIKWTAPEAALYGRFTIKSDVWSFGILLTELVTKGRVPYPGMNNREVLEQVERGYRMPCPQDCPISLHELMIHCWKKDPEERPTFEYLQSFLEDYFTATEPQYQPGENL
Chain of FGFR1 (P11362 whole entry, looked up): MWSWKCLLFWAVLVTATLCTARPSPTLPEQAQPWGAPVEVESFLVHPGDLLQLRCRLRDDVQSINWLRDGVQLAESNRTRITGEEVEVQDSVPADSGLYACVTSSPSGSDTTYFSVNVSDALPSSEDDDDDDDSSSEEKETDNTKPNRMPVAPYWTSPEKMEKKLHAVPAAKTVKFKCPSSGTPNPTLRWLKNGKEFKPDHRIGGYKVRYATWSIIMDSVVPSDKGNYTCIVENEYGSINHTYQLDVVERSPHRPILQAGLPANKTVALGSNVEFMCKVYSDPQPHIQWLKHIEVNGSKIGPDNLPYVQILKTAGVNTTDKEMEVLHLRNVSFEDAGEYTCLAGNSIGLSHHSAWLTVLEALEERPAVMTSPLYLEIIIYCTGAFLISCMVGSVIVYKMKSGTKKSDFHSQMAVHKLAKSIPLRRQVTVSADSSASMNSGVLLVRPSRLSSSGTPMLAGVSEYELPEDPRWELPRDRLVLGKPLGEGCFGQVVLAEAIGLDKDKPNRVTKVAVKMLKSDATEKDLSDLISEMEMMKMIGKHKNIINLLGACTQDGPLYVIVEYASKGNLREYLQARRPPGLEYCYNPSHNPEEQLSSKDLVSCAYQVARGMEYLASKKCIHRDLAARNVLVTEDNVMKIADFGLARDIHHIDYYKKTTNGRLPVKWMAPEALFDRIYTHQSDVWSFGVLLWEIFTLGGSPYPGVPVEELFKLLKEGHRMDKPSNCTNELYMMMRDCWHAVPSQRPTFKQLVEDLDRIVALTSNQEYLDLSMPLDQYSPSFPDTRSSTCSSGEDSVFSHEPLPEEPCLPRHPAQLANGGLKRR
Chain of EPHB2 (P29323 whole entry, looked up): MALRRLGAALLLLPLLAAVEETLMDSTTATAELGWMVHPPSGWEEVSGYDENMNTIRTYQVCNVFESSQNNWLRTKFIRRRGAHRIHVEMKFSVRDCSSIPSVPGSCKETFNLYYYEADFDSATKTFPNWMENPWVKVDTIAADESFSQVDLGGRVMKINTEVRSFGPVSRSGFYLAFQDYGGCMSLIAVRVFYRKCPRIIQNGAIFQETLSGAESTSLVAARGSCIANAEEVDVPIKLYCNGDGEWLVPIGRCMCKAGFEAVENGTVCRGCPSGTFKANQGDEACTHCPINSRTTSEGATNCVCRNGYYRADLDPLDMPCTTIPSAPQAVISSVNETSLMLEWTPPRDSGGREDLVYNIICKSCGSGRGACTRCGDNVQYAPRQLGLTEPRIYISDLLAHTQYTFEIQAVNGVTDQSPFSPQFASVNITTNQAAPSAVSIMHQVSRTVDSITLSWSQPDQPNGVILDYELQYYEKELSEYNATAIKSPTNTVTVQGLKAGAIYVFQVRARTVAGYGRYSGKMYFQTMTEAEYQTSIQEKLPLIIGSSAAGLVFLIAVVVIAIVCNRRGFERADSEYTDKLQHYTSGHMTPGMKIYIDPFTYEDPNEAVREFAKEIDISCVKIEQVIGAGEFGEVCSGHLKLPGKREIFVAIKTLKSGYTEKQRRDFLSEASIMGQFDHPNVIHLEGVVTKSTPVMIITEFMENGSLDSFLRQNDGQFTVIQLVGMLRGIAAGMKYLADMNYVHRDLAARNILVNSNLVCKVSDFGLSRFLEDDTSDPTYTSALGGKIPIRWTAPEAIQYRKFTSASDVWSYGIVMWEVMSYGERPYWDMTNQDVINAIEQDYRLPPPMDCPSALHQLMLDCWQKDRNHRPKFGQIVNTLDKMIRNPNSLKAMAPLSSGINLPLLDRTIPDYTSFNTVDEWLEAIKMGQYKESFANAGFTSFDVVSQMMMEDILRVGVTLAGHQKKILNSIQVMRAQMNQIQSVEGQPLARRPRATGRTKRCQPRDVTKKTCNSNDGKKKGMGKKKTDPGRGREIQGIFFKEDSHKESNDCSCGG
Chain of Jak2 (O60674 whole entry, looked up): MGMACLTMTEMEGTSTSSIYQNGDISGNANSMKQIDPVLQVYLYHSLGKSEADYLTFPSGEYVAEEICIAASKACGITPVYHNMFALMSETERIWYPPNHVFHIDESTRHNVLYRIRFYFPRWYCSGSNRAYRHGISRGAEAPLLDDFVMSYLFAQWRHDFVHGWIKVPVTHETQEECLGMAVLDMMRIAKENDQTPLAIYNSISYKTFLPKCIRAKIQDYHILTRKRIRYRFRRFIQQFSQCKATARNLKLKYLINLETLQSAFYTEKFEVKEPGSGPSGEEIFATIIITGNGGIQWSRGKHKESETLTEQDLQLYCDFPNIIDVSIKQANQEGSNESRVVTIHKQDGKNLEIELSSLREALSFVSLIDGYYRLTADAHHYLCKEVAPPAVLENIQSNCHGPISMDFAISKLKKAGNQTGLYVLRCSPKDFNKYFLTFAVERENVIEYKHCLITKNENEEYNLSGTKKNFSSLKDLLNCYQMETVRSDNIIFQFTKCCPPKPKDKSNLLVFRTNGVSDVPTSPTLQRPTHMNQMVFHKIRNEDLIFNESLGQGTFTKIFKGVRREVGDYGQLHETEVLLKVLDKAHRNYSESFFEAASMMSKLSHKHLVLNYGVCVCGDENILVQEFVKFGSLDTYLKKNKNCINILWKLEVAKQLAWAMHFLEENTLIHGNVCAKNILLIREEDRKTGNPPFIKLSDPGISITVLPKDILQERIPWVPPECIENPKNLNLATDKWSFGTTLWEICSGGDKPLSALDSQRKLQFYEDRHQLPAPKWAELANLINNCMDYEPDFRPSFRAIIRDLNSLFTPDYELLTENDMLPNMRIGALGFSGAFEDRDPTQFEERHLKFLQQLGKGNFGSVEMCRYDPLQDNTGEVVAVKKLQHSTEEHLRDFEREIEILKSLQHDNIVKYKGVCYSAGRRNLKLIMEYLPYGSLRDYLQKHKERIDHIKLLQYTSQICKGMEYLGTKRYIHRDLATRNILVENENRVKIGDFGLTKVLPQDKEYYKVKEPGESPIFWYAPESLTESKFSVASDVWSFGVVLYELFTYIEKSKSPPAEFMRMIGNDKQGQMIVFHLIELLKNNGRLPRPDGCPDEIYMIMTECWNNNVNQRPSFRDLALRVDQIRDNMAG

Sequence	phosphorylation enrichment [1]	phosphorylation enrichment [2]	phosphorylation enrichment [3]	phosphorylation enrichment [4]	phosphorylation enrichment [5]	phosphorylation enrichment [6]	phosphorylation enrichment [7]	phosphorylation enrichment [8]	phosphorylation enrichment [9]	phosphorylation enrichment [10]	phosphorylation enrichment [11]	phosphorylation enrichment [12]	phosphorylation enrichment [13]	SH2 binding enrichment [14]	SH2 binding enrichment [15]	SH2 binding enrichment [16]
CSRRLYQLTKL [AR_Y858_F857L]	0.558	0.59	0.456	0.517	0.728	0.794	0.657	0.499	0.621	0.858	0.769	0.451	0.666	0.524	0.641	0.449
LQTFRYHGHSM [PDHA1_Y289_YF]	0.716	0.61	0.999	0.68	0.775	0.876	0.761	0.592	0.948	0.616	1.06	0.843	0.664	0.499	0.901	1.03
ISRLKYPVSQQ [BTK_Y375]	0.313	0.383	0.399	0.317	0.486	0.534	0.342	0.318	0.355	0.352	0.59	0.331	0.419	0.831	0.938	1.04
WASGIYFVPKG [APBB1IP_Y340_R335W_YF]	9	10	4.26	4.77	28.7	7.69	5.32	2.87	7.44	7.16	0.993	10.1	2.81	0.848	1.29	1.17
IQKKFYRAILE [CHD7_Y1218_YF]	0.409	0.275	0.46	0.37	0.51	0.636	0.414	0.398	0.344	0.332	0.727	0.396	0.523	0.685	0.769	0.699
FFNSEYGELSE [FLT4_Y1337_YF]	0.399	0.567	0.728	0.479	0.875	1.02	1.25	0.533	1.19	0.791	1.24	0.566	1.2	0.468	0.943	0.734
ISDDKYGRIRL [ARCN1_Y310]	0.325	1.04	0.357	0.407	0.433	0.419	0.56	0.312	0.434	0.454	0.501	0.357	0.484	0.434	0.806	0.639
GIKAAYEAELG [LMNA_Y81]	0.404	0.507	0.496	0.502	0.704	0.691	0.392	0.446	0.597	0.438	0.797	0.531	0.713	0.514	0.875	0.727
PKGTGCIKTEL [STAT1_Y701_Y701C]	0.74	0.54	0.759	0.558	1.04	0.808	0.457	0.726	0.443	0.689	1.27	0.774	1.05	0.586	0.772	0.73
INSLKYAFNVS [EIF2B5_Y583_I587V_YF]	0.447	0.43	0.584	0.44	0.593	0.771	0.464	0.452	0.478	0.51	0.85	0.443	0.77	0.379	0.705	0.352
PHQTIYGALMI [FGF23_Y70_S71G]	0.796	0.711	0.838	0.57	1.36	0.721	5.96	3.41	10.6	7.87	1.07	0.679	0.849	0.341	0.75	0.599
LNGDRYFKGIV [DCX_Y64_R59L]	1.37	3.35	3.96	4.77	0.703	0.942	0.626	3.94	2.87	4.24	4.84	2.3	4.62	0.618	0.78	0.686
LENSTYQYICV [CRB1_Y760_R764C]	6.83	8.2	8.35	14.1	1.61	2.13	3.5	15.4	4.96	5.89	2.41	11.9	3.88	0.522	0.715	0.526
MKNDLYQTPLH [NFKB1_Y582_R578K]	1.81	1.11	0.502	0.473	5.91	0.727	1.63	2.2	1.16	4.13	0.695	0.668	1.4	0.585	0.774	0.604
AVLSLCASGRT [ACTA2_Y145_Y145C]	0.402	0.639	0.592	0.505	0.606	0.959	0.357	0.545	0.366	0.448	0.955	0.58	0.898	0.488	0.807	0.857
SGAWSYNTSTE [SELE_Y24]	0.447	0.502	0.621	0.52	0.55	0.881	0.378	0.382	0.499	0.379	0.748	0.458	0.788	0.536	0.802	0.886
CGTPTYLAPEV [CHEK2_Y390]	0.816	1.39	1.04	1.12	7.74	1.9	0.639	0.564	0.627	0.776	1.34	1.18	2.38	0.582	0.878	0.785
KPGVNYFFQVS	0.508	0.577	1.09	0.85	0.801	1.28	0.408	0.582	0.538	0.588	1.38	0.695	1.15	0.606	0.993	1.18
LPSKDYAEVRR [HP_Y272_G276R]	0.361	0.638	0.865	0.712	1.75	0.539	0.832	0.419	0.559	0.7	0.832	1.48	0.598	1.72	0.965	1.31
SRNKPYISWPS [CDC42BPB_Y1638]	0.441	0.395	0.511	0.469	0.477	0.977	0.483	0.345	0.436	0.485	0.612	0.417	0.583	1.32	1.61	1.51
KHTLSFVDVGT [SDHA_Y629_Y629F]	0.315	0.495	0.497	0.348	0.451	0.624	0.292	0.371	0.384	0.364	0.691	0.319	0.661	0.562	0.862	0.54
DPGVSYHTREE [PDHA1_Y301_R302H]	0.405	0.429	0.548	0.452	0.399	0.465	0.41	0.383	0.483	0.551	0.764	0.351	0.677	0.359	0.65	0.713
ANVIHYFPTQA [SLC25A4_Y81_R80H]	0.456	0.415	0.56	0.487	0.806	0.794	0.515	0.393	0.483	0.446	0.652	0.528	0.623	0.435	0.9	0.94
PLQKIYNYNVL [SLC4A1_Y553_T552I]	1.09	1.05	1.04	0.514	0.748	1.05	1.32	0.582	0.409	0.564	1	0.773	0.585	1.54	0.807	0.638
CGTPEYRAPEI [PRKACA_Y205_L206R]	0.467	0.605	0.825	0.603	3.88	0.984	0.432	0.582	0.517	0.549	1.35	0.687	1.17	0.52	0.767	0.735
TYEPNYGTVKQ [RAPGEF6_Y1447]	0.644	5.21	0.659	0.553	1.2	0.47	1.44	2.44	2.21	1.66	0.667	1.54	0.864	0.556	0.748	0.696
DWQQEYVLNES [TGM1_Y267_R264Q]	0.427	0.615	0.996	1.11	0.788	0.957	2.73	0.434	0.648	0.6	1.45	1.42	2.03	0.506	0.766	0.681
PRDGEYFTLQI [TP53_Y327_L323R]	0.93	1.19	8.55	11.7	1.75	3.26	3.76	0.775	2.55	2.14	1.38	1.31	2.81	0.405	0.753	0.631
DGMADCSDPSY [CDC5L_Y459_Y459C]	0.412	0.595	0.754	0.465	0.755	1.06	0.425	0.52	0.492	0.543	1.18	0.607	1.12	0.615	1.22	0.629
